Measured values as given in IntAct's records for PubMed 22037600.

B1: Endoribonuclease ZC3H12A (Mus musculus), Q5D1E7 (parent)
chain: MSDPCGTKPVQESNPTMSLWSLEDRHSSQGRPQPDQDPVAKEAPTSELQMKVDFFRKLGYSSSEIHSVLQKLGVQADTNTVLGELVKHGSATERECQALTAPSPQPPLVPRGGSTPKPSTLEPSLPEEDREGSDLRPVVIDGSNVAMSHGNKEVFSCRGILLAVNWFLERGHTDITVFVPSWRKEQPRPDVPITDQHILRELEKKKILVFTPSRRVGGKRVVCYDDRFIVKLAFESDGVVVSNDTYRDLQGERQEWKRFIEERLLMYSFVNDKFMPPDDPLGRHGPSLDNFLRKKPLPSEHRKQPCPYGKKCTYGIKCRFFHPERPSRPQRSVADELRANALLSPPRTPVKDKSSQRPSPASQSSSVSLEAEPGSLDGKKLGARSSPGPHREGSPQTCAPAGRSLPVSGGSFGPTEWLAHTQDSLPYTSQECLDSGIGSLESQMSELWGVRGGSPGESGPTRGPYAGYHSYGSKVPAAPSFSPFRPAMGAGHFSVPTDYVPPPPTYPSREYWSEPYPLPPPTPVLQEPQRPSPGAGGGPWGRVGDLAKERAGVYTKLCGVFPPHLVEAVMRRFPQLLDPQQLAAEILSYKSQHLSE
partner: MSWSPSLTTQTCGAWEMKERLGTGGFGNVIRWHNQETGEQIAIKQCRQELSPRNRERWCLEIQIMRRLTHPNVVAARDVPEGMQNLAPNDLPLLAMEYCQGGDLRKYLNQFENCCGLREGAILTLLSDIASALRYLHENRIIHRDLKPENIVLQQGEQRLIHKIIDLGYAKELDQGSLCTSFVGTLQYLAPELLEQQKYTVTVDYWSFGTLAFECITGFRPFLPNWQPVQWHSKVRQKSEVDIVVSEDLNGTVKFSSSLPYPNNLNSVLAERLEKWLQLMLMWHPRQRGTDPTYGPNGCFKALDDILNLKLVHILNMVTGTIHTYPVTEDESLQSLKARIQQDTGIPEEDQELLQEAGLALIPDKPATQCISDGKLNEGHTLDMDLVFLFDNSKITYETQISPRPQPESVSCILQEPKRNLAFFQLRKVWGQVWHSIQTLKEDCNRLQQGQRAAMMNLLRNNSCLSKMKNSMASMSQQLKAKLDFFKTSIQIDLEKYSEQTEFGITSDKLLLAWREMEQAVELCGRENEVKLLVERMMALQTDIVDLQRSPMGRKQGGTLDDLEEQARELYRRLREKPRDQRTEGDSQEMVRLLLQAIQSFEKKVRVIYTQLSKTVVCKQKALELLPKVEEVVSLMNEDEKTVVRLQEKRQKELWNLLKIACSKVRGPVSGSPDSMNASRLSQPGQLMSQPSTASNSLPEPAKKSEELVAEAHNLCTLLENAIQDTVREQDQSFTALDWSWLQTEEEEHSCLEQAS

Variants of: B1
Settings: with ikkb_human IKBKB

| effect of a mutation on the interaction | Variant |
| --- | --- |
| decreasing interaction | MSDPCGTKPVQESNPTMSLWSLEDRHSSQGRPQPDQDPVAKEAPTSELQMKVDFFRKLGYSSSEIHSVLQKLGVQADTNTVLGELVKHGSATERECQALTAPSPQPPLVPRGGSTPKPSTLEPSLPEEDREGSDLRPVVIDGSNVAMSHGNKEVFSCRGILLAVNWFLERGHTDITVFVPSWRKEQPRPDVPITDQHILRELEKKKILVFTPSRRVGGKRVVCYDDRFIVKLAFESDGVVVSNDTYRDLQGERQEWKRFIEERLLMYSFVNDKFMPPDDPLGRHGPSLDNFLRKKPLPSEHRKQPCPYGKKCTYGIKCRFFHPERPSRPQRSVADELRANALLSPPRTPVKDKSSQRPSPASQSSSVSLEAEPGSLDGKKLGARSSPGPHREGSPQTCAPAGRSLPVSGGSFGPTEWLAHTQDSLPYTSQECLDAGIGSLESQMSELWGVRGGSPGESGPTRGPYAGYHSYGSKVPAAPSFSPFRPAMGAGHFSVPTDYVPPPPTYPSREYWSEPYPLPPPTPVLQEPQRPSPGAGGGPWGRVGDLAKERAGVYTKLCGVFPPHLVEAVMRRFPQLLDPQQLAAEILSYKSQHLSE [S435A] |
| decreasing interaction | MSDPCGTKPVQESNPTMSLWSLEDRHSSQGRPQPDQDPVAKEAPTSELQMKVDFFRKLGYSSSEIHSVLQKLGVQADTNTVLGELVKHGSATERECQALTAPSPQPPLVPRGGSTPKPSTLEPSLPEEDREGSDLRPVVIDGSNVAMSHGNKEVFSCRGILLAVNWFLERGHTDITVFVPSWRKEQPRPDVPITDQHILRELEKKKILVFTPSRRVGGKRVVCYDDRFIVKLAFESDGVVVSNDTYRDLQGERQEWKRFIEERLLMYSFVNDKFMPPDDPLGRHGPSLDNFLRKKPLPSEHRKQPCPYGKKCTYGIKCRFFHPERPSRPQRSVADELRANALLSPPRTPVKDKSSQRPSPASQSSSVSLEAEPGSLDGKKLGARSSPGPHREGSPQTCAPAGRSLPVSGGSFGPTEWLAHTQDSLPYTSQECLDSGIGALESQMSELWGVRGGSPGESGPTRGPYAGYHSYGSKVPAAPSFSPFRPAMGAGHFSVPTDYVPPPPTYPSREYWSEPYPLPPPTPVLQEPQRPSPGAGGGPWGRVGDLAKERAGVYTKLCGVFPPHLVEAVMRRFPQLLDPQQLAAEILSYKSQHLSE [S439A] |
| decreasing interaction | MSDPCGTKPVQESNPTMSLWSLEDRHSSQGRPQPDQDPVAKEAPTSELQMKVDFFRKLGYSSSEIHSVLQKLGVQADTNTVLGELVKHGSATERECQALTAPSPQPPLVPRGGSTPKPSTLEPSLPEEDREGSDLRPVVIDGSNVAMSHGNKEVFSCRGILLAVNWFLERGHTDITVFVPSWRKEQPRPDVPITDQHILRELEKKKILVFTPSRRVGGKRVVCYDDRFIVKLAFESDGVVVSNDTYRDLQGERQEWKRFIEERLLMYSFVNDKFMPPDDPLGRHGPSLDNFLRKKPLPSEHRKQPCPYGKKCTYGIKCRFFHPERPSRPQRSVADELRANALLSPPRTPVKDKSSQRPSPASQSSSVSLEAEPGSLDGKKLGARSSPGPHREGSPQTCAPAGRSLPVSGGSFGPTEWLAHTQDSLPYTSQECLDAGIGALESQMSELWGVRGGSPGESGPTRGPYAGYHSYGSKVPAAPSFSPFRPAMGAGHFSVPTDYVPPPPTYPSREYWSEPYPLPPPTPVLQEPQRPSPGAGGGPWGRVGDLAKERAGVYTKLCGVFPPHLVEAVMRRFPQLLDPQQLAAEILSYKSQHLSE [S435A;S439A] |
